The values below come from the DeepSol protein solubility set.

A short description of the data set: soluble on expression in E. coli; label from the status in PepcDB or PDB records.
For “MAHHHHHHMSVPSLRRSDRSGDPTRDRVHYVRAQRQHLVRETRMLQMALEELQEEAERENTEEALMRRGIDTTHRELLRCLLHLALAEQDSTRGAAAASGAQAQYDETSAIICEVLRRYKHEQDAFTQEAKQRLESIREEARQACMNVGDTLAVPQGEHAHSSGVGSVVEATDCDSLRSALEALREMQAEVDEETEATLLSIGRTLFC”, the “soluble on expression in E. coli” value is “not soluble”. Regarding “KVILKEDAEMLDEVVVTGYGMSQKRSLMTNSISKLDDKVLQNAAMSNAAQSLQGTVSGLRVTNTSGKPGSSPNIVLRGGASINKNLEGPLVVVDGLVRSMDDINPSDIESIQVLKDAASTAIYGARANNGVILVTTKKGVEGR”, the “soluble on expression in E. coli” value is “not soluble”. As for “SNAMRVLTGLQPSGDLHIGNYFGAIKQMVDAQEKSQMFMFIANYHAMTSSQDGEKLKQNSLKAAAAFLSLGIDPQKSVFWLQSDVKEVMELYWILSQFTPMGLLERAHSYKDKVAKGLSASHGLFSYPVLMAADILLFDTRIVPVGKDQIQHVEIARDIALKVNNEWGEIFTLPEARVNEEVAVVVGTDGAKMSKSYQNTIDIFSSEKTLKKQISSIVTDSTALEDPKDHENCNIFKIAKLFLDESGQKELQIRYEKGGEGYGHFKIYLNELVNAYFKEAREKYNELLEKPSHLKEILDFGATKARKIAQEKMQKIYEKIGL”, the entry is “soluble”; as for “GPGSMARNKIALIGSGMIGGTLAHLAGLKELGDVVLFDIAEGTPQGKGLDIAESSPVDGFDAKFTGANDYAAIEGADVVIVTAGVPRKPGMSRDDLLGINLKVMEQVGAGIKKYAPEAFVICITNPLDAMVWALQKFSGLPAHKVVGMAGVLDSARFRYFLSEEFNVSVEDVTVFVLGGHGDSMVPLARYSTVAGIPLPDLVKMGWTSQDKLDKIIQRTRDGGAEIVGLLKTGSAFYAPAASAIQMAESYLKDKKRVLPVAAQLSGQYGVKDMYVGVPTVIGANGVERIIEIDLDKDEKAQFDKSVASVAGLCEACIGIAPSLK”, “soluble”. As for “MGSDKIHHHHHHMFIGFDYGTANCSVAIMRDGHPQLLTMENNSALLPSMLCAPTREAVSEWLYRHHDVPATDEETQALLRRAIRYNREEDIEVGAQSVQFGLASLAHYIDDPQEVWFVKSPKSFLGASGLKPQQVALFEDLVCAMMVHIRHTAHSQLPEAITQAVIGRPINFQGLGGDDANRQAQGILERAAKRAGFQEVVFQYEPVAAGLDYEATLREEKRVLVVDIGGGTTDCSMLLMGPQWRQRADRENSLLGHSGCRVGGNDLDIALAFKNLMPLLGMGGETEKGIALPVLPWWNAVAINDVPAQSDFYSSANGRLLNDLVRNAREADKVALLLKVWRQRLSYRLVRCAEESKIALSGQADVTARLPFISDDLAVAISQQGLEAALDQPLTRILEQVQLALDSAQEKPDVIYLTGGSARSPLIKKALSEQLPGIPVAGGDDFGSVTAGLARWAEVVFR”, the entry is “not soluble”.

For “MVPQTGRAARATRESGRQTRDALFTAATELFLEHGEGVPITQICAAAGAHPNQVTYYYGSKERLFVEVACAAVLRAGKRAEDDAATAETVGDYTEKLVGSLLGPGAPSVELFTSAMLMTGRRSELRDLITDTLRTLHSSGEVALIRTLMRTGWQLRAGIDVESKAFWSAIFGLVIQKTATGESFGYSLEEAVAVIFANLQIPETVRNTSID”, the “soluble on expression in E. coli” value is given as “soluble”. The value for “DSYPDSQIEIRTLVGPYENTLVFRDTGPGIDDSILHKIFDDFFSFQKSGGSGLGLGYCQRVMRSFGGRIECKSVTNEFTEFYLHFPVVPNAPKVETLRTPNFYNWNQKVKTK” was “not soluble”; that for “GPGSMTKLFHHNITAIHEKFQPPFSVDTFRRIARLVLARVEHMPPPDYYDGSAVWRRVRHYMRQWIKKPDPSEVCMVPLLDLVNHSNRPNCGLRVGPSSVVGGKGAITLYSIARINPGQEICRHYNFAINRPNALFRYGFLPFDLISIVEHDAIDEYLVKNQHMLREESEEVRMKQQKEREEIQKLEKIFQHARSGR” was “not soluble”. The value for “MGSDKIHHHHHHMTTTPFNRLLLTGAAGGLGKVLRERLKGYAEVLRLSDISPMAPAAGPHEEVITCDLADKAAVHTLVEGVDAIIHFGGVSTEHAFEEILGPNICGVFHVYEAARKHGVKRIIFASSNHTIGFYRQDERIDAHAPRRPDSYYGLSKCYGEDVASFYFDRYGIETVSIRIGSSFPQPQNLRMLCTWLSYDDLVQLIERGLFTPGVGHTIVYGASDNRTVWWDNRHAAHLGYVPKDSSETFRAAVEAQPAPAADDPSMVYQGGAFAVAGPFN” was “not soluble”. As for “MYIILVYDIGEKRVGKMLKLCRKYLNWIQNSVFEGEISEVKLLELKSRAAGIMEKEEDSLIIFSSRQERWLEKEIIGKERSATDIFL”, the entry is “not soluble”.
